Experimental data from PMC6205638, “Exploring natural genetic variation in tomato sucrose synthases on the basis of increased kinetic properties” (PLoS ONE, 2018).

Molecular target: Tomato sucrose synthase SuSy3-haplotype#1 (cv Moneymaker) (S. lycopersicum cv Moneymaker)
Assay: native gel or EMSA; Native PAGE on Mini-PROTEAN TGX gel 4-20% of the IMAC-purified product; size estimated against a prestained protein ladder

Tomato sucrose synthase SuSy3-haplotype#1 (cv Moneymaker) (enzyme)
stoichiometry N: 4
